The nature of this data set: yeast display, Sf9 membrane polyspecificity reagent, FACS + sequencing; frameworks hold sequencing errors. A digest of the protocol:
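Using colony PCR, genes from sorted yeast display clones were amplified, then sequenced on MiSeq at 2 × 250 and filtered by CDR length. The clones had been stained with 10% biotinylated, detergent-solubilized Sf9 membrane reagent for 1 hour at 4 °C and sorted by FACS into low and high (top ~1%) gates on anti-HA and streptavidin fluorescence. Polyreactivity labels come from the gate of origin.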
As to “QVHLVESGGGLVQAGGSLRLSCAASGRIFTYYAMGWYRQAPGKERELVAAINSRGGRTYYADSVKGRFTISRDNAKNTVYLQMNSLKPEDTAVYYCNKAVYFAWGWGLRDYDYWGQGTQVTVSS”, the “polyreactivity (PSR sort gate)” value was “high polyreactivity”.

For the sequence “QVHLVESGGGLVQAGGSLRLSCAASGRISHYNAMGWNRQAPGKERELVAAISSRGGSTYYADSVKGRFTISRDNAKNTVYLQMNSLKPEDTAVYFCAVRYWHWGKKITYDYWGQGTQVTVSS”, the “polyreactivity (PSR sort gate)” value is given as “high polyreactivity”.

On to “QVHLVESGGGLVQAGGSLRLSCAASGRISQNALGWYRQAPGKEREVVAAITFSGGSTYYADSVKGRFTISRDNATNTVYLQMNSLKPEDNAVYYCNVRLYTDGLKYDYWGQGTQVTVSS”, for which the “polyreactivity (PSR sort gate)” value is on record as “low polyreactivity”.

For “QVHLVESGGGLVQAGGSLRLSCAASGRIYAFYAMGWYRQAPGKERELVAAISSGGNTKYADSVKGRFTISRDNAKNTVYLQMNSLKPEYTAVFYCDARTPWYNKGDYWGLGTQVTVSS”, the “polyreactivity (PSR sort gate)” value is “low polyreactivity”.

With “QVHLVESGGGLVQAGGSLRLSCAASGRLFGVYVMGWYRQAPGKERELVAAISWSGSHTYYADSVKGRFTISRDNAKNTVYLQMNSLKPEDTEVYYCNADSYPDYTGPGLDWYDYWGQGTQVTVSS”, the “polyreactivity (PSR sort gate)” value was “low polyreactivity”.

For the sequence “QVHLVESGGGLVQAGGSLRLSCAASGRNFDNKAMGWYRQAPGKERELVATLSRNGGSTYYADSVKGRFTISRDNAKNTVYLQINRLKRDDTAVYYCNKRTRFIPSFDYWGQGTQVTVSS”, the “polyreactivity (PSR sort gate)” value is on record as “low polyreactivity”.

In the case of “QVHLVESGGGLVQAGGSLRLSCAASGRPFSKYTMGWDRQAPGKERELVAVISRSGTRTYYADSVKGRFTISRDNAKNTVYLQMNSLKPEDTAVYYCAAKDERRSFGMGYWGQGTQVTVSS”, the “polyreactivity (PSR sort gate)” value was “high polyreactivity”.

“QVHLVESGGGLVQAGGSLRLSCAASGRTFANYAMGWYRQAPGKERELVAAISFSTVSTYYADSVKGRFTISRDNAKNTVYLQMNSLKPEDTAVYYCAARRLGYYRKVKELDYWGQGTQVTVSS”: the “polyreactivity (PSR sort gate)” value is on record as “high polyreactivity”.

Regarding “QVHLVESGGGLVQAGGSLRLSCAASGRTFAYNTMGWYRQAPGKERELVAAISSDGSTNYADSVKGRFTISRDNAKNTVYLQMNSLKPEDTAVYYCAKGEGTGYSDTQVYEHDYWGQGTQVTVSS”, the “polyreactivity (PSR sort gate)” value is “low polyreactivity”.

With “QVHLVESGGGLVQAGGSLRLSCAASGRTFCYNAMGWYRPAPGKERELVAAITSSGGGTSYADSVKGRFTISRDNAMNTVYLQMNSLKPEDTAVSYCARVRRYPLRYNYWGQGTQLTVSS”, the “polyreactivity (PSR sort gate)” value is reported as “high polyreactivity”.

For “QVHLVESGGGLVQAGGSLRLSCAASGRTFDHNTMGWYRQAPGKERELVAAISWSGGTTYYADSVKGRFTISRDNAKNTVYLQMNSLKPEDTAVYYCAADRSPGSYGYQYDYWGQGTQVTVSS”, the “polyreactivity (PSR sort gate)” value was “low polyreactivity”.

Turning to “QVHLVESGGGLVQAGGSLRLSCAASGRTFDVYAMGWYRQAPGKERELVATITDSGGNTYYADSVKGRFTISRDNAKNTVYLQMNSLKPEDTAVYYCAADRIYPYYRWSGAHRSDVDYWGQGTQVTVSS”, the “polyreactivity (PSR sort gate)” value is reported as “low polyreactivity”.

For the sequence “QVHLVESGGGLVQAGGSLRLSCAASGRTFENNAMGWYRPAPGKESELVAAITVSGGSTYYADSVKGRFTLSRDNAKNTVDLQMNSLKPEDTAVYYCAIVGFGIPGGFYYWGEGTQVTVSS”, the “polyreactivity (PSR sort gate)” value was “low polyreactivity”.

For the sequence “QVHLVESGGGLVQAGGSLRLSCAASGRTFGYYAMGWYRQAPGKERELVAAITRTGGSTHYADSVKGRFTISRDNAKNTVYLQMNSLKPEDTAVYYCAADKRGTVYLSSFWMDYWGQGTQVTVSS”, the “polyreactivity (PSR sort gate)” value is “low polyreactivity”.

With “QVHLVESGGGLVQAGGSLRLSCAASGRTFPPYAMGGYRQAPGKERELVAAISIVGSTYYADSVKGRFTISRDNAKNTVYLQMNSLKPEDTAVYYCAADVAGYYKLYDYWGQGTQVTVSS”, the “polyreactivity (PSR sort gate)” value is “high polyreactivity”.

As for “QVHLVESGGGLVQAGGSLRLSCAASGRTFPYNAMGWYRQAPGKERELVDAISSGGSTNYADSVKGRFTISRDNAKNTVYLQMNSLKPEDTAVYYCATKYQRRPYRYSYWGQGTQVTVSS”, the “polyreactivity (PSR sort gate)” value is on record as “low polyreactivity”.

On to “QVHLVESGGGLVQAGGSLRLSCAASGRTFRRYAMGWYRQAPGKERELVAAISYNGGRTYYADSVKGRFTISRDNAKNSVYLQMNILKPEDTAVYYCNAERGFSDYWGQGTQVTVSS”, for which the “polyreactivity (PSR sort gate)” value is on record as “high polyreactivity”.

Consider “QVHLVESGGGLVQAGGSLRLSCAASGRTFVPYVMGWYRQAPGKERELVATINWSGGSTYYADSVKGLFTISRDNAKNTVYLQMNSLKPEDTAVYYCAARYYSDWFYYLFRYDYLGQGTQVTVSS”, for which the “polyreactivity (PSR sort gate)” value is “low polyreactivity”.

“QVHLVESGGGLVQAGGSLRLSCAASGRTFVRYAMGWYRQAPGKERELVARITARGTSTYYADSVKGRFTISRDNAKNTVYLQMNRLKPEDTAVYYCNKVRTFRDKSRYDYWGQGTQVTVSS”: the “polyreactivity (PSR sort gate)” value is recorded as “low polyreactivity”.

“QVHLVESGGGLVQAGGSLRLSCAASGRTFWYYAMGWYRPAPGKERELVAAITRTGGSTYYADSVKGRFTISRDYAKNTVYLQMNSLKPEDTAVYYCARKYSYPVVAPSDYYWGQGTQVTVSS”: the “polyreactivity (PSR sort gate)” value is “high polyreactivity”.

Consider “QVHLVESGGGLVQAGGSLRLSCAASGRTFYDNAMVWYRQAPGKERELVAAISKRGSSTYYADSVKGRFTISRYTAKNSVYLEMNSLKPEDTAVYYCAADSLLGWSVEYWGKGTQVTVSS”, for which the “polyreactivity (PSR sort gate)” value was “high polyreactivity”.

Turning to “QVHLVESGGGLVQAGGSLRLSCAASGRTFYGYDMGWYRQAPGKERELVATISSGGSTNYADSVKGRFTISRDYAKNTVYLQMNSLKPEDTAVYYCNADSYEYPSPYRYYYLGYDYWGQGTQVTVSS”, the “polyreactivity (PSR sort gate)” value is reported as “low polyreactivity”.

On to “QVHLVESGGGLVQAGGSLRLSCAASGRTFYSNAMGWYRQPPGKERELVAAINSGGDTYYADSVKGRFTISRDNAKNTVYLQMNSLTPEDTAVYYCADDYYWEMDSWGQGTQVTVSS”, for which the “polyreactivity (PSR sort gate)” value was “low polyreactivity”.

In the case of “QVHLVESGGGLVQAGGSLRLSCAASGSIFAVYAMGWYRQEPGKERELVAVITRSGGSTYYADSVKGRFTISRDNAKKTVYLQLYSLKPEDTAVYYCAARSSYLLRYDYWGQGTQVTVSS”, the “polyreactivity (PSR sort gate)” value is recorded as “high polyreactivity”.

For the sequence “QVHLVESGGGLVQAGGSLRLSCAASGSIFDVNAMGWYRQSPGKERELVASIDNSGTTNYADSVKGRFTISRDNAKNTVYLLMNSLKPEDTAVYYGAAEYESGDYWGQGTQVTVSS”, the “polyreactivity (PSR sort gate)” value is listed as “low polyreactivity”.

For the sequence “QVHLVESGGGLVQAGGSLRLSCAASGSIFDYYDMGWYRQAPGKERELVASITWSGGRTSYADSVKGRFTISRDNAKNTVYLQMNSLKPEDNAVYYCNARGFRGEYDYWVQGTQVTVSS”, the “polyreactivity (PSR sort gate)” value is on record as “high polyreactivity”.

For the sequence “QVHLVESGGGLVQAGGSLRLSCAASGSIFGTYAMGWYRQPPGKESELVAAITSSGGSTYYADSVKGRFTISRDNAKNTVYLQMNSLKPEDTAVYYCAAYLRIRVGVPVRTYYYWGQGTQVTVSS”, the “polyreactivity (PSR sort gate)” value is reported as “high polyreactivity”.

For “QVHLVESGGGLVQAGGSLRLSCAASGSIFKPYAMGWYRKAPGKERELVAAISGIGGSTYYADSVKGRFTISRDNAKNTVYLQMNSLKPEDTAVYYCAADTFFKIFSEYNYCGQGTQVTVSS”, the “polyreactivity (PSR sort gate)” value was “high polyreactivity”.

As for “QVHLVESGGGLVQAGGSLRLSCAASGSIFRYYAMGCYRQAPGKERELVAGITWSSGSTYYADYVKGRFTISRDKAKNTVYFQMNSLKPEDTAVSYCIADPANPFVTEFEYWGQGNQVTVSS”, the “polyreactivity (PSR sort gate)” value is given as “high polyreactivity”.

As to “QVHLVESGGGLVQAGGSLRLSCAASGSIFSDYAMGWYRQAPGKERELVAAITWSGGSTYYADSVKGRFTISRDNAKNTVYLQMNSLKPEDTAVYYCAARFGKVRDFRYAYLLEYDYWGQGTQVTVSS”, the “polyreactivity (PSR sort gate)” value is “low polyreactivity”.

In the case of “QVHLVESGGGLVQAGGSLRLSCAASGSIFSVNDMGWYRQAPGKERELVAAISSGGSTNYADSVKGRFTISRDNAKNTVSLQMNSLKPEDTAVYYCAADFYVVYWGTYSVGYDYWGQGTQVTVSS”, the “polyreactivity (PSR sort gate)” value is recorded as “low polyreactivity”.

For “QVHLVESGGGLVQAGGSLRLSCAASGSIFTRYTMGWYRQAPGKERELVAAITRSGGSTYYADSVKGRFTISRDNAKNTVYLQMNSLKPEDTAVYYCAARVRLATGARDYWGQGTQVTVSS”, the “polyreactivity (PSR sort gate)” value is reported as “high polyreactivity”.

As for “QVHLVESGGGLVQAGGSLRLSCAASGSIFVAYAMGWYRQAPGKERELVAAISSSGGTTYYADSVKGRFTISRDNAMNTVYLQMNSLKPEDTAVYYCAARDYKFYYWGQGSQVTVSS”, the “polyreactivity (PSR sort gate)” value is “high polyreactivity”.

On to “QVHLVESGGGLVQAGGSLRLSCAASGSIFYVYAMGWYRQAPGKERELVAAITSSGTTNYADSVKGRFTISRDNAKNTVYLQMNSLKPEDTAVYYCAADPDSGQVPFDYWGQGTQVTVSS”, for which the “polyreactivity (PSR sort gate)” value is on record as “low polyreactivity”.

Take “QVHLVESGGGLVQAGGSLRLSCAASGSIFYVYAMVWYRQAPGKERELVAAITWSGGSTYYADSVKGRFTISRDNAKNTVYLQMNSLNPEDTAVYYCAADEGYDYPYYYWGQGTQVSVSS”: the “polyreactivity (PSR sort gate)” value is recorded as “high polyreactivity”.

Consider “QVHLVESGGGLVQAGGSLRLSCAASGSIFYYYAMGWYRQAPGKEREFVAAINWSGGITYYADSVKGRFTISRDNAKNTVYLQMNSLKPEDTAVFYCAAPVRGYSYGKYDYWGQGTQVTVSS”, for which the “polyreactivity (PSR sort gate)” value was “high polyreactivity”.

As to “QVHLVESGGGLVQAGGSLRLSCAASGSIIGKYAMGWYRQAPGKERELVADITNSGGSTYYADSVKGRFTISRDNAKNTVYLQMNSLKPEDTAVYYCAADYLYPPYYEFYFWGQGTQVTVSS”, the “polyreactivity (PSR sort gate)” value is listed as “low polyreactivity”.

Turning to “QVHLVESGGGLVQAGGSLRLSCAASGSILARYAMGWYRQAPRKERELVASITTSGDSTYYADSVKGRFTISRDNAKNTVSLQMNSLIPEDTAVYYCARRRWGWGYQHFPYYYWGQGTQVTVSS”, the “polyreactivity (PSR sort gate)” value is given as “high polyreactivity”.

As to “QVHLVESGGGLVQAGGSLRLSCAASGSILDEYAMGWYRQPPGKESELVAAISSSGTSTYYADSVKRRFTISRDNAKNTDYLQMNSLKPEDTAVYDCARVKQHRSHRVPGDDYWGQGTQVTVSS”, the “polyreactivity (PSR sort gate)” value is on record as “low polyreactivity”.

As for “QVHLVESGGGLVQAGGSLRLSCAASGSIYHGNAMGWYRQAPGKERELVATISSGGSTYYADSLKVRFTISRDNAKNTVYLQMNSLKPEDTAVYYCAAERFWPYKSYYRGQGTQVTVSS”, the “polyreactivity (PSR sort gate)” value is recorded as “low polyreactivity”.

On to “QVHLVESGGGLVQAGGSLRLSCAASGSIYVNTMGWYRPAPGKERELVAGISRSTGRTYYADSVKGRFTISRDNAKNTVYLQMNSLKPEDTAVYYCNTVPWRRWGYDYWGQGTQVTVSS”, for which the “polyreactivity (PSR sort gate)” value was “high polyreactivity”.
